Results: patent US20230220042A1 (SHANGHAI JIAO TONG UNIVERSITY SCHOOL OF MEDICINE, published 2023)
Changes are numbered by the printed parent chain. Names may count otherwise.

T1: Biotin-FcγRIIB (human, UniProt P31994 43-217, limits assumed, biotin-labelled)
T1 construct: Bought, biotin-labelled; used at 1 µg/ml for staining and sorting; also called human FcγRIIB; CD32b
T1 sequence (looked up): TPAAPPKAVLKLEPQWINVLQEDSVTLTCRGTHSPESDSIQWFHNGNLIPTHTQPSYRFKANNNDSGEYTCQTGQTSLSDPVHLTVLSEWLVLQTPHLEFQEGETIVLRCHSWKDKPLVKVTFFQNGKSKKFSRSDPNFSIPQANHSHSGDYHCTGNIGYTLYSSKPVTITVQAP

T2: Biotin-FcγRIIB (human FcγRIIB, Sino Biological) (human, UniProt P31994 43-217, limits assumed, biotin-labeled)
T2 construct: Used at 1 µg/ml with Streptavidin-APC for flow cytometry and sorting; also called CD32b
T2 sequence (looked up): T1 sequence (looked up)

B1: human IgG2 anti-mouse CD40 surface displayed antibody, Fc mutant P271G/S298D (antibody, name in EU numbering)
light chain (with the P2A rest): DTVLTQSPALAVSPGERVTISCRASDSVSTLMHWYQQKPGQQPKLLIYLASHLESGVPARFSGSGSGTDFTLTIDPVEADDTATYYCQQSWNDPWTFGGGTKLELKRTVAAPSVFIFPPSDEQLKSGTASVVCLLNNFYPREAKVQWKVDNALQSGNSQESVTEQDSKDSTYSLSSTLTLSKADYEKHKVYACEVTHQGLSSPVTKSFNRGECGSGATNFSLLKQAGDVEENPG
heavy chain: EVQLVESDGGLVQPGRSLKLPCAASGFTFSDYYMAWVRQAPTKGLEWVASISYDGSSTYYRDSVKGRFTISRDNAKSTLYLQMDSLRSEDTATYYCGRHSSYFDYWGQGVMVTVSSASTKGPSVFPLAPCSRSTSESTAALGCLVKDYFPEPVTVSWNSGALTSGVHTFPAVLQSSGLYSLSSVVTVPSSNFGTQTYTCNVDHKPSNTKVDKTVERKCCVECPPCPAPPVAGPSVFLFPPKPKDTLMISRTPEVTCVVVDVSHEDGEVQFNWYVDGVEVHNAKTKPREEQFNDTFRVVSVLTVVHQDWLNGKEYKCKVSNKGLPAPIEKTISKTKGQPREPQVYTLPPSREEMTKNQVSLTCLVKGFYPSDIAVEWESNGQPENNYKTTPPMLDSDGSFFLYSKLTVDKSRWQQGNVFSCSVMHEALHNHYTQKSLSLSPGKLEPPPSTVSNMATVAVLVVLGAAIVTGAVVAFVMKMRRRNTGGKGGDYALAPGSQTSDLSLPDCKVMVHDPHSLA
notes: as m1; positions are Eu numbers; copies: 2 + 2
B2: human IgG2 anti-mouse CD40 surface displayed antibody, Fc mutant S267M/P271G (antibody, name in EU numbering)
light chain (with the P2A rest): B1 light chain (with the P2A rest)
heavy chain: B1 heavy chain with S262M, D293S
notes: as for B1
B3: human IgG2 anti-mouse CD40 surface displayed antibody, Fc mutant P271G/T299S (antibody, name in EU numbering)
light chain (with the P2A rest): B1 light chain (with the P2A rest)
heavy chain: B1 heavy chain with D293S, T294S
notes: as for B1
B4: human IgG2 anti-mouse CD40 surface displayed antibody, Fc mutant P271G/T299M (antibody, name in EU numbering)
light chain (with the P2A rest): B1 light chain (with the P2A rest)
heavy chain: B1 heavy chain with D293S, T294M
notes: as for B1
B5: human IgG2 anti-mouse CD40 surface displayed antibody, Fc mutant P271G/S298G (antibody, name in EU numbering)
light chain (with the P2A rest): B1 light chain (with the P2A rest)
heavy chain: B1 heavy chain with D293G
notes: as for B1
B6: human IgG2 anti-mouse CD40 surface displayed antibody, Fc mutant P271G/S298L (antibody, name in EU numbering)
light chain (with the P2A rest): B1 light chain (with the P2A rest)
heavy chain: B1 heavy chain with D293L
notes: as for B1
B7: human IgG2 anti-mouse CD40 surface displayed antibody, Fc mutant P271G/P331T (antibody, name in EU numbering)
light chain (with the P2A rest): B1 light chain (with the P2A rest)
heavy chain: B1 heavy chain with D293S, P326T
notes: as for B1
B8: human IgG2 anti-mouse CD40 surface displayed antibody, Fc mutant P271G/P331C (antibody, name in EU numbering)
light chain (with the P2A rest): B1 light chain (with the P2A rest)
heavy chain: B1 heavy chain with D293S, P326C
notes: as for B1
B9: human IgG2 anti-mouse CD40 surface displayed antibody, Fc mutant P271G/T299A (antibody, name in EU numbering)
light chain (with the P2A rest): B1 light chain (with the P2A rest)
heavy chain: B1 heavy chain with D293S, T294A
notes: as for B1
B10: human IgG2 anti-mouse CD40 surface displayed antibody, Fc mutant P271G/T299W (antibody, name in EU numbering)
light chain (with the P2A rest): B1 light chain (with the P2A rest)
heavy chain: B1 heavy chain with D293S, T294W
notes: as for B1
B11: human IgG2 anti-mouse CD40 surface displayed antibody, Fc mutant P271G/S298E (antibody, name in EU numbering)
light chain (with the P2A rest): B1 light chain (with the P2A rest)
heavy chain: B1 heavy chain with D293E
notes: as for B1
B12: human IgG2 anti-mouse CD40 surface displayed antibody, Fc mutant P271G/P329S (antibody, name in EU numbering)
light chain (with the P2A rest): B1 light chain (with the P2A rest)
heavy chain: B1 heavy chain with D293S, P324S
notes: as for B1
B13: human IgG2 anti-mouse CD40 surface displayed antibody, Fc mutant P271G/S298K (antibody, name in EU numbering)
light chain (with the P2A rest): B1 light chain (with the P2A rest)
heavy chain: B1 heavy chain with D293K
notes: as for B1
B14: human IgG2 anti-mouse CD40 surface displayed antibody, Fc mutant S267A/P271G (antibody, name in EU numbering)
light chain (with the P2A rest): B1 light chain (with the P2A rest)
heavy chain: B1 heavy chain with S262A, D293S
notes: as for B1
B15: human IgG2 anti-mouse CD40 surface displayed antibody, L328E/I332T (antibody, name in EU numbering)
light chain (with the P2A rest): B1 light chain (with the P2A rest)
heavy chain: B1 heavy chain with G266P, D293S, L323E, I327T
notes: m1 with these Fc mutations (Eu numbering); copies: 2 + 2
B16: human IgG2 anti-mouse CD40 surface displayed antibody, L328W (antibody, name in EU numbering)
light chain (with the P2A rest): B1 light chain (with the P2A rest)
heavy chain: B1 heavy chain with G266P, D293S, L323W
notes: m1 with this Fc mutation (Eu numbering); Not the anti-human OX40 antibody Mut_1, which carries the same Fc mutation; copies: 2 + 2
B17: human IgG2 anti-mouse CD40 surface displayed antibody, L328F (antibody, name in EU numbering)
light chain (with the P2A rest): B1 light chain (with the P2A rest)
heavy chain: B1 heavy chain with G266P, D293S, L323F
notes: m1 with this Fc mutation (Eu numbering); copies: 2 + 2
B18: human IgG2 anti-mouse CD40 surface displayed antibody, L328Y (antibody, name in EU numbering)
light chain (with the P2A rest): B1 light chain (with the P2A rest)
heavy chain: B1 heavy chain with G266P, D293S, L323Y
notes: as for B17

Target: T1, Biotin-FcγRIIB
Assay: FACS sorting of displayed Fc library on biotin-FcγRIIB, NGS; reference P271G

Binder	Increased factor 2 c Site 1 (combined/point mutation)	Increased factor 2 c Site 2 (combined/point mutation)
B1	1.9	
B2		1.6
B3	3.4	
B4	1.3	
B5	2.8	
B6	53.2	
B7	9.1	
B8	39.6	
B9	1.8	
B10	2.6	
B11	84.2	
B12	13.1	
B13	2.9	
B14		1.9

Target: T1, Biotin-FcγRIIB
Assay: FACS sorting of displayed Fc library on biotin-FcγRIIB, NGS

Binder	Enrichment factor (after/before sorting)	Increased factor a (enrichment factor/wild-type enrichment factor)
B1	6.78	9.06
B2	4.31	7.52
B3	12	16
B4	4.74	6.33
B5	9.73	13
B6	188	252
B7	32.3	43.2
B8	140	187
B9	6.28	8.39
B10	9.23	12.3
B11	298	398
B12	46.2	61.8
B13	10.2	13.6
B14	5.27	9.19

Target: T2, Biotin-FcγRIIB (human FcγRIIB, Sino …)
Assay: NGS after FACS sort of 3T3-displayed Library4 for biotin-FcγRIIB binding

Binder	Enrichment factor (percentage after sorting/percentage before sorting)	Increased factor (enrichment factor/wild-type enrichment factor)
B15	55.1	36.9
B16	33.2	22.2
B17	563	377
B18	3.38	2.26
